PMC2756588

T1: Lsb3, P43603
T1 sequence (P43603 385-451, looked up): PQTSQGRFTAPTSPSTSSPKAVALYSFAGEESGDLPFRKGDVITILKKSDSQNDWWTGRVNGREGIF

T2: Abp1, P15891
T2 sequence (P15891 535-592, looked up): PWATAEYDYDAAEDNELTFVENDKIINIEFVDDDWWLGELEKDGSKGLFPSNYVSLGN

T3: Bbc1, P47068
T3 sequence (P47068 1-78, looked up): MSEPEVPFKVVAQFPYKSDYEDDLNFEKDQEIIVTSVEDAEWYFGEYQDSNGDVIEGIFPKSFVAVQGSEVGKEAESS

T4: Cdc25, P04821
T4 sequence (P04821 50-136, looked up): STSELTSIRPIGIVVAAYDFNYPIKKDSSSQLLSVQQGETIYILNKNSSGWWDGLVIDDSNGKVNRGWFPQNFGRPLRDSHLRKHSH

T5: Lsb1, P53281
T5 sequence (P53281 45-122, looked up): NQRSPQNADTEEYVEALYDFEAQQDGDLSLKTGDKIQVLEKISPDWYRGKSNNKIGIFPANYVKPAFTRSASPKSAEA

T6: Cyk3, Q07533
T6 sequence (Q07533 1-83, looked up): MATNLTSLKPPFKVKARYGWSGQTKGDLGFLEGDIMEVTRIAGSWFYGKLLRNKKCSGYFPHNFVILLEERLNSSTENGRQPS

T7: Hse1, P38753
T7 sequence (P38753 208-285, looked up): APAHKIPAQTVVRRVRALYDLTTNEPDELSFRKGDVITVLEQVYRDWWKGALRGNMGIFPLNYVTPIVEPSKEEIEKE

T8: Boi1, P38041
T8 sequence (P38041 1-86, looked up): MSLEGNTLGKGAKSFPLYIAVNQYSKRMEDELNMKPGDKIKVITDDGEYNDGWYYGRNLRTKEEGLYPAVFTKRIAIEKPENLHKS

T9: Myo5, Q04439
T9 sequence (Q04439 1072-1160, looked up): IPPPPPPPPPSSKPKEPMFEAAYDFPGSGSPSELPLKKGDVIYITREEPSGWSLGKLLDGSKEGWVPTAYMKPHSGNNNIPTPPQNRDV

T10: Bzz1-1, P38822
T10 sequence (P38822 478-572, looked up): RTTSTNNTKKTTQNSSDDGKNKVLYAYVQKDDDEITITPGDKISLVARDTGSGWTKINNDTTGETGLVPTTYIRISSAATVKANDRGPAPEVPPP

T11: Sla1-2, P32790
T11 sequence (P32790 60-140, looked up): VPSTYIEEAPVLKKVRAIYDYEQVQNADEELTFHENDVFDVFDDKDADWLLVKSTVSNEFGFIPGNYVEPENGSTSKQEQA

T12: Fus1, P11710
T12 sequence (P11710 432-512, looked up): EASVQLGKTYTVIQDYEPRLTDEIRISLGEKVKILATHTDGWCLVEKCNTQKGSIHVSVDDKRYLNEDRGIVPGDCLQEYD

T13: Pex13, P80667
T13 sequence (P80667 295-386, looked up): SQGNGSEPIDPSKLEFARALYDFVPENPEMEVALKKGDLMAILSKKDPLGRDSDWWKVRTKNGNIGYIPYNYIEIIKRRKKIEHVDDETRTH

T14: Bud14, P27637
T14 sequence (P27637 247-328, looked up): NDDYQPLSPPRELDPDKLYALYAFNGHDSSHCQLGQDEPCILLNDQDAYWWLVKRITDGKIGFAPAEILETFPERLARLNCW

T15: Bzz1-2, P38822
T15 sequence (P38822 568-633, looked up): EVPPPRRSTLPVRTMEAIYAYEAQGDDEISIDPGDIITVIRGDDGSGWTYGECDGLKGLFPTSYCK

T16: Lsb4, P32793
T16 sequence (P32793 402-468, looked up): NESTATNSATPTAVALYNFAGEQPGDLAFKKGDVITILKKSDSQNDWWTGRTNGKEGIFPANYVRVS

T17: Sla1-3, P32790
T17 sequence (P32790 344-424, looked up): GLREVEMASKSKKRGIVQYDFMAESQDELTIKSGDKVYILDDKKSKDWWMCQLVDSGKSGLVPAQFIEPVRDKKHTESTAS

T18: Boi2, P39969
T18 sequence (P39969 32-116, looked up): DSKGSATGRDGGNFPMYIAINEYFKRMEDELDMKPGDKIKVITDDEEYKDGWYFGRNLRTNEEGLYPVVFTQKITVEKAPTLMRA

T19: Nbp2, Q12163
T19 sequence (Q12163 103-180, looked up): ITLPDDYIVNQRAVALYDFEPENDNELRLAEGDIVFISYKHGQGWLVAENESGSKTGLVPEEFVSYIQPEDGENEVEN

T20: Hof1, Q05080
T20 sequence (Q05080 590-669, looked up): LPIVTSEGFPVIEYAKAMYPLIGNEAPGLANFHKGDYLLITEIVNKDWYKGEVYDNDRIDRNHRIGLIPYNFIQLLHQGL

T21: Pin3, Q06449
T21 sequence (Q06449 53-122, looked up): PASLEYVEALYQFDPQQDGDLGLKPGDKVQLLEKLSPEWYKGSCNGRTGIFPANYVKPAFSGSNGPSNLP


How the values were obtained:
Test in all cases: SPOT array
[1] = target: T1, Lsb3, P43603; conditions: median of control spots 406
[2] = target: T2, Abp1, P15891; conditions: median of control spots 935
[3] = target: T3, Bbc1, P47068; conditions: median of control spots 796
[4] = target: T4, Cdc25, P04821; conditions: median of control spots 969
[5] = target: Bem1-1, P29366; conditions: median of control spots 4282
[6] = target: T5, Lsb1, P53281; conditions: median of control spots 388
[7] = target: Bem1-2, P29366; conditions: median of control spots 4347
[8] = target: T6, Cyk3, Q07533; conditions: median of control spots 1451
[9] = target: T7, Hse1, P38753; conditions: median of control spots 1727
[10] = target: T8, Boi1, P38041; conditions: median of control spots 1162
[11] = target: T9, Myo5, Q04439; conditions: median of control spots 471
[12] = target: GST; conditions: median of control spots 978
[13] = target: T10, Bzz1-1, P38822; conditions: median of control spots 4446
[14] = target: T11, Sla1-2, P32790; conditions: median of control spots 712
[15] = target: T12, Fus1, P11710; conditions: median of control spots 1200
[16] = target: T13, Pex13, P80667; conditions: median of control spots 1341
[17] = target: T14, Bud14, P27637; conditions: median of control spots 956
[18] = target: T15, Bzz1-2, P38822; conditions: median of control spots 4538
[19] = target: T16, Lsb4, P32793; conditions: median of control spots 397
[20] = target: T17, Sla1-3, P32790; conditions: median of control spots 5475
[21] = target: Rvs167, P39743; conditions: median of control spots 2707
[22] = target: T18, Boi2, P39969; conditions: median of control spots 1161
[23] = target: Sho1, P40073; conditions: median of control spots 1148
[24] = target: T19, Nbp2, Q12163; conditions: median of control spots 357
[25] = target: T20, Hof1, Q05080; conditions: median of control spots 4086
[26] = target: Myo3, P36006; conditions: median of control spots 468
[27] = target: T21, Pin3, Q06449; conditions: median of control spots 2171

Bem1-1, P29366, sequence (P29366 55-141): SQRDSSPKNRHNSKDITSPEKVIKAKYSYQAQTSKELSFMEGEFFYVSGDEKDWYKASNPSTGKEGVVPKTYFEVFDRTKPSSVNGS
Rvs167, P39743, sequence (P39743 419-482): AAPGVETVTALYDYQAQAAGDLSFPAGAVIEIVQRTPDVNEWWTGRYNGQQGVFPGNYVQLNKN
Bem1-2, P29366, sequence (P29366 139-227): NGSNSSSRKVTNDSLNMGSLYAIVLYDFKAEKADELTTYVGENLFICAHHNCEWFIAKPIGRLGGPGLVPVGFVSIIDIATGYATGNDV
Sho1, P40073, sequence (P40073 287-367): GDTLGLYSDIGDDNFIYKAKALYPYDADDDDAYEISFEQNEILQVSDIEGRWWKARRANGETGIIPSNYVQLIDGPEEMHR

| Binder | SPOT intensity [1] | SPOT intensity [2] | SPOT intensity [3] | SPOT intensity [4] | SPOT intensity [5] | SPOT intensity [6] | SPOT intensity [7] | SPOT intensity [8] | SPOT intensity [9] | SPOT intensity [10] | SPOT intensity [11] | SPOT intensity [12] | SPOT intensity [13] | SPOT intensity [14] | SPOT intensity [15] | SPOT intensity [16] | SPOT intensity [17] | SPOT intensity [18] | SPOT intensity [19] | SPOT intensity [20] | further results |
| --- | --- | --- | --- | --- | --- | --- | --- | --- | --- | --- | --- | --- | --- | --- | --- | --- | --- | --- | --- | --- | --- |
| GRSRLFPHSPLGRSS | 0 | 34 | 12 | 34 | 0 | 0 | 5 | 2 | 9 | 4 | 0 | 0 | 0 | 1 | 16 | 4 | 25 | 9 | 0 | 8 | SPOT intensity [21]: 0; SPOT intensity [22]: 1; SPOT intensity [23]: 21; SPOT intensity [24]: 4; SPOT intensity [25]: 14; SPOT intensity [26]: 0; SPOT intensity [27]: 1 |
| RRASLFPRDPKRLRP | 2 | 95 | 165 | 148 | 0 | 0 | 7 | 3 | 79 | 7 | 1 | 5 | 1 | 7 | 25 | 2 | 10 | 35 | 4 | 158 | SPOT intensity [21]: 0; SPOT intensity [22]: 8; SPOT intensity [23]: 67; SPOT intensity [24]: 0; SPOT intensity [25]: 21; SPOT intensity [26]: 7; SPOT intensity [27]: 11 |
| LFMKGTPEFPKSGFS | 8 | 85 | 1 | 0 | 0 | 67 | 0 | 0 | 2 | 0 | 48 | 0 | 0 | 5 | 0 | 211 | 1 | 0 | 50 | 0 | SPOT intensity [21]: 1; SPOT intensity [22]: 0; SPOT intensity [23]: 17; SPOT intensity [24]: 5; SPOT intensity [25]: 0; SPOT intensity [26]: 54; SPOT intensity [27]: 40 |

The next lines start with results.

| SPOT intensity [1] | SPOT intensity [2] | SPOT intensity [3] | SPOT intensity [4] | SPOT intensity [5] | SPOT intensity [6] | SPOT intensity [7] | SPOT intensity [8] | SPOT intensity [9] | SPOT intensity [10] | SPOT intensity [11] | SPOT intensity [12] | SPOT intensity [13] | SPOT intensity [14] | SPOT intensity [15] | SPOT intensity [16] | SPOT intensity [17] | SPOT intensity [18] | SPOT intensity [19] | SPOT intensity [20] | Binder | further results |
| --- | --- | --- | --- | --- | --- | --- | --- | --- | --- | --- | --- | --- | --- | --- | --- | --- | --- | --- | --- | --- | --- |
| 0 | 0 | 2 | 6 | 0 | 0 | 10 | 3 | 0 | 0 | 0 | 0 | 0 | 0 | 5 | 4 | 4 | 0 | 0 | 9 | YHSRRHPLALGFKYV | SPOT intensity [21]: 0; SPOT intensity [22]: 0; SPOT intensity [23]: 7; SPOT intensity [24]: 0; SPOT intensity [25]: 0; SPOT intensity [26]: 1; SPOT intensity [27]: 13 |
| 0 | 0 | 0 | 2 | 0 | 1120 | 0 | 0 | 0 | 0 | 0 | 3 | 0 | 1 | 0 | 0 | 0 | 3 | 0 | 0 | VYTRTAFQIPGDDKI | SPOT intensity [21]: 0; SPOT intensity [22]: 0; SPOT intensity [23]: 0; SPOT intensity [24]: 0; SPOT intensity [25]: 0; SPOT intensity [26]: 0; SPOT intensity [27]: 29 |
| 0 | 34 | 333 | 67 | 0 | 0 | 1 | 3 | 11 | 1 | 0 | 0 | 1 | 0 | 52 | 0 | 21 | 0 | 0 | 30 | HKVLRPFLLRRLKKD | SPOT intensity [21]: 0; SPOT intensity [22]: 0; SPOT intensity [23]: 26; SPOT intensity [24]: 13; SPOT intensity [25]: 0; SPOT intensity [26]: 0; SPOT intensity [27]: 4 |
